Results taken from the DeepSol protein solubility set.

assay: soluble on expression in E. coli; label from the status in PepcDB or PDB records

| Sequence | soluble on expression in E. coli |
| --- | --- |
| MNYLEGVGSKKGGGGIASESQFNLQRRKEVESLLSKGENVPYTFQDEKDDQVRSNPYIYKNHSGKLVCKLCNTMHMSWSSVERHLGGKKHGLNVLRRGISIEKSSLGREGQTTHDFRQQQKIIEAKQSLKNNGTIPVCKIATVKNPKNGSVGLAIQVNYSSEVKENSVDSDDKAKVPPLIRIVSGLELSDTKQKGKKFLVIAYEPFENIAIELPPNEILFSENNDMDNNNDGVDELNKKCTFWDAISKLYYVQFFFKQAEQEQADV | soluble |
| MNYQVLLYYKYTTIDDPEQFAQDHLAFCKAHHLKGRILVSTEGINGTLSGTKEETEQYMAHMHADERFKDMVFKIDEAEGHAFKKMHVRPRKEIVALDLEDDVDPRHTTGQYLSPVEFRKALEDDDTVIIDARNDYEFDLGHFRGAIRPDITRFRDLPDWIKENKALFTDKKVVTYCTGGIRCEKFSGWLLKEGFEDVAQLHGGIATYGKDPETKGQYWDGKMYVFDDRISVDINQVEKTIIGKDWFDGKPCERYINCANPECNKQILVSEENETKYLGACSYECAKHERNRYVQANNISDNEWQQRLTNFDDLHQHALEHHHHHH | soluble |
| MNYTTEFKLGTDGLDVVPGATNTFEMPEGVIPSANATVYFYSGGMPESATANYTGAGNLWSFTSTNGIDSSAGAIRVEITQGRNFGDDPGLVTATATTRAWNEPPLVTVDQSVSGETKFAFSIPVGKPGNDGISAYAQAHAQGFNGSVDDWLESLRGANGKSAYELAVTQGFQGSSADWLNSLKGATGKSAYEVAVAQGFTGALAEWVESLKGVAGKSAYDIALDAGYKGSHLDWLNSLKGGKGDKGDHGKSAYQVAFDAGFSGTEAEWLESLKAPSAPAVGGYKELANGVLWYCRPRYNTGRCTVPDTGWGAYDYETAEHTTKFVIEDGLFEDHGCYVVPDASNLPTDDLRLRMTRGVNRGIHHAGRMTNRSDLVPPYSATTSYFIDRWAAKFYGWYYVMLSPQESAQFLADTDLEKIEVDVQPVTFSGVDVTNWAPGGTETYFLAKEQGLLVPIYKGASRHTVSATGETIVALWFRVGVYTHRSNIGSDNHSFDGINGEPDGWNLHDVDVKFWSTNVAQGMKFSAKIRN | not soluble |
| MPADRYATGNGFTGIIRTRHQTFKRHRSAHRRNGQNPIGLPARSRWQPAGNQQLLIFRRLMQNKKQPAQAVFLAASLTPTAAPSSLPVGKR | not soluble |
| MPAFRMPPSTKVEYTSFGTKLSGAMKKIGLLSDTHGYIDEKYRIHFADCDEIWHAGDIGSVTVADYLSGLAPLRAVYGNIDGQDIRLQYPEVLRFCVEEVKVFMTHIGGYPGRYEPRIYRMLVQNPPRLFVCGHSHILKAMYDKKLDMLHLNPGAAGKYGFHAVRTLMRFVIDGRDIRDLQVIELADR | not soluble |
| MPAFVDLEELLATRLLVQGNSGSGKSHLLRRLLEQSSSWVQHCVIDPEGDFVTLADKFGHVIVEAQRSEQELMRIAYRIRQHRVSVVLNLEGLDTEQQMRAVGTFLGALFDVERDYWYPMLVVVDEAQLFAPAVAGEVSDEARKISLSAMTNLMCRGRKRGLAGVIATQRLAKLAKNVAAEASNFLIGRTFLDIDMVRAADLLGMERRQAEMFRDLERGHFVALGPALSRRSLRIIIGSVETLARSSSPKLMPLPKERVDVKELVFTASQEEILIPFKQSREPVKEKSIHAILEKAVNKKRELLAENSSLFPELSVVDRDLQAECIIREILEDPEAFYRSTAVLYQDFLVRCRIHGLSGDFLNLSQFRRKLAIAQACVDKETAVSENWKRILYISESLEDDVQGVFLNVAQAALGGKPCPSDAFLARLYGTHSLSRARRLLTYFEERGLIVIHTHFSGQRIIAFPDLGVETAPGDPKEPI | not soluble |
| MPAFVERTPSAEVPRQVLRPHAEHAFAAELASLAGQDDRPRPARWRLSPWAVATYLLGGTLPDGTVITPKYVGPRRVVEVAVTTLATDRALLLLGVPGTAKTWVSEHLAAAVSGDSTLLVQGTAGTPEEAIRYGWNYARLLAHGPGRDALVPSPVMRAMTEGATVRVEELTRIPADVQDSLITLLSEKTLPIPELGEEVQAVRGFNLIATANDRDRGVNDLSSALRRRFNTVVLPLPESAEAEVDIVTRRVDQIGRSLDLPSAPDGTDEIRRVVTVFRELRDGLTSDGRTKVKSPSGPLSTAEAISVVTGGLALCAHFGDGVLRAGDLAAGVLGAVVRDPGTDRVVWQEYLETVVREREGWQDFYRACREVTALEHHHHHH | not soluble |
| MPAGHEDIGLPQDDEAFMRYRERRIQELCGKVEEVVSEKELIEKTKSLRMIVHFYKPEFKRCKTMDKGLEEVKDCFPGIRFYRVNAEICPVVARKLEIRVLPFLGFFKDGYFVDQVVGFEKLGGDSVEPEVLKKRILDSNIFKPISSI | not soluble |
| MPDESAQVRFLIVGRTGWIANMVAELLEQRGERYAFASFRLEQREACELELDALRPQRVLNCAGVTGRPNVDWCEDHRRETVRSNVLGVLNLADCCASRGIHLTNFATGCLYHYDDGEHRPTAEGGRPFTEDDPPNFFGSYYSRTKAMVEELLRSAFDNVLILRLRMPVSDDLSPRSFVAKIARYEKVVNIPNSMTVLTELLPVALDMSERGLTGVYNFTNPGSISHNEVLELYRKYIDPKFQWKNFTLEEQAKILKAGRSNCELDVRKLLRDNPGAQIREVHAAMEEVFRRMQAKGVKPLAAP | not soluble |
| MPDHGPAFTVKIAETEAELHAAQRLRYDVFVRELGGSGALVDHQAGLERDRFDPFFDHMLCINNRSGQVVGVYRLLRDEQAQSAGQFYSEDEYDLGVLKRSGRRLLELGRSCVHPDYRGGMAMYHLWNGLADYVEQHGIEVLFGVASFHGTDVEALAQPLSMLYHNHLAPEDLRVRTQPAHYVDMNRITPEALDRRRAMLEVPSLIKAYLRLGGFVGDGAYIDHAFNTTDVCLILDTARMNERQRRIYGGG | not soluble |
| MPDHLGDDMRKTKKDDTKEEEKNFQALDEGDIAVLKRYGQGPYAEQLKTLDADIENCLKKVNELSGVKESDTGLAPPALWDIAADKQAMQQEQPLQVARCTKIITSDKHDPRYLINVKQFAKFVVDLADSVAPTDIEEGMRVGVDRNKYQIHLPLPAKIDPTVTMMQVEEKPDVTYSDVGGCKDQIEKLREVVETPLLHPERYVNLGIEPPKGVLLYGPPGTGKTLCARAVANRTDACFIRVIGSELVQKYVGEGARMVRELFEMARTKKACLIFFDEIDAVGGARFDDGQGGDNEVQRTMLELINQLDGFDPRGNIKVLMATNRPDTLDPALMRPGRLDRKVEFALPDLAGRAHILKIHAKQMSVERDIRYDLLARLCPNSTGAEIRSVCTEAGMFAIRARRKVATEKDFLEAINKVVKGYAKFSATPRYLTHN | not soluble |
| MPDYDLITILGPTASGKTPFAAALAHELNTEIISADSRQIYRGMDLGTGKDLADYTVDGHPIPYHLIDIADPGYKYNVFEYQRDFLISYESIKQKGCLPVLCGGTGMYLESVLKGYKLMPVPENPELRARLANHSLEELTEILKQYKTLHNSTDVDTVKRAIRAIEIEEYYAVHPVPEREFPKLNSLIIGVDIDRELRREKITRRLKQRLDEGMVDEVRRLTEQGISPDDLIYYGLEYKFLTLYVIGKLTYEEMFTELETAIHQFAKRQMTWFRGMERRGFTIHWVSAELPMEEKIAFVIEKLRGNLEHHHHHH | soluble |
| MPEFTNNPVAECDTVFSEKDGKKIVDFIIYPAKNGDQWVGTAVEAKSMGFGGELKVLVGFDAEGKIYNYSLLSHAETPGLGSKAADWFKEGNKGSIKGMNPGEQPLTVSKDGGQVDAITASTITSRAFLNAVNAAYGAYKGDGGANGTTGASQKAVQKSETAIVDSVVIKLEHHHHHH | soluble |
| MPENLQLVIITGMSGAGKTVAVQSFEDMGYFCIDNLPPSLIPKFWELIKESGKVTKIALVIDLRSRTFFREIQDMLVELENTNFIDTTILFLDATDEELVSRYKETRRAHPMAMDGLVTEGIRKERAMLEEIKADAQLVIDTTDLSPRQLRERLNKELATRETHEFRVEMVSFGFKYGLPIDADIVMDVRFLPNPHYIDELRPLTGMDQPVYDYVMGFPETDEFYTKFIDLLRTVLPGYKKEGKSSVTIAIGCTGGQHRSVALTERVGAELKEEDYHVNITHRDRLKRKETVNRS | not soluble |
| MPEQLKQRVETCYQQAEAFFKRRFPRPEVSFKLRGQKAGVAHLHENLLRFNLQLYRENQEDFLRQTVAHEVAHLVAHQLFGDRIQAHGEEWQLIMRGVYELPPNRCHNYDVQRRAVTRYIYRCPCPQSDFPFTAQRHKLVHQGRRYLCKRCREVLVYSGETRVE | soluble |
| MPETEEISKGLEDVNIKWTRLTTIDGNKGILRYGGYSVEDIIASGAQDEEIQYLFLYGNLPTEQELRKYKETVQKGYKIPDFVINAIRQLPRESDAVAMQMAAVAAMAASETKFKWNKDTDRDVAAEMIGRMSAITVNVYRHIMNMPAELPKPSDSYAESFLNAAFGRKATKEEIDAMNTALILYTDHEVPASTTAGLVAVSTLSDMYSGITAALAALKGPLHGGAAEAAIAQFDEIKDPAMVEKWFNDNIINGKKRLMGFGHRVYKTYDPRAKIFKGIAEKLSSKKPEVHKVYEIATKLEDFGIKAFGSKGIYPNTDYFSGIVYMSIGFPLRNNIYTALFALSRVTGWQAHFIEYVEEQQRLIRPRAVYVGPAERKYVPIAERK | soluble |
| MPEVIFNGPAGRLEGRYQPSKEKSAPIAIILHPHPQFGGTMNNQIVYQLFYLFQKRGFTTLRFNFRSIGRSQGEFDHGAGELSDAASALDWVQSLHPDSKSCWVAGYSFGAWIGMQLLMRRPEIEGFMSIAPQPNTYDFSFLAPCPSSGLIINGDADKVAPEKDVNGLVEKLKTQKGILITHRTLPGANHFFNGKVDELMGECEDYLDRRLNGELVPEPAAKRIR | soluble |
| MPEVRAERYIPAPPERVYRLAKDLEGLKPYLKEVESLEVVAREGARTRSRWVAVAMGKKVRWLEEEEWDDENLRNRFFSPEGDFDRYEGTWVFLPEGEGTRVVLTLTYELTIPIFGGLLRKLVQKLMQENVESLLKGLEERVLAASS | soluble |
| MPFDFETVLNRRHTNAVKWDVADDELPMWVADMDFETAPVIKQALIKRAQFGVFGYEEVPMAYYEAVADWWATEHNFRPQIEWLMFCTGVVPAISSIVRKMTAAGDNVLVQAPVYNIFYHSIENNGRHTLSSDLVARDASYAIDWDDLTKKLADPLTTMMILCNPQNPIGVVWSRATLQRLGELCLKYHVLVVADEIHCDLTLNGNAYTPFSSLTAPVAHNSISCISPSKTFNVAALHAATLIIPDAHVRALVSRGINNDELAEPNSFAIPASIAAYTEGHDWVAALRTKLAANQRQVQTYLTAELPQVKLVEAQATYLLWLDVSQVTTDSAALAAFIRQRTGLFLSAGDVYRGDGNRFLRLNVACPTTTLTDGLARLKAGITAYQQVQA | not soluble |
| MPFLPPLTPPTELYLGIQLPNPISILVNYLPVSQTPIETLRNLVYSCNINTLAIDEFMTWPSLLQPESTFRSYFELLVERGSIPAVYLEGVRQASNFVTVAQGLSVMTTVALSDPFACFATGLFLTCTGNHLDFLPISEKFWEMTPTLEAGHAVAEMVMYHISQLHTENARRWERSWRFVHPPSCVGQGDCYILLEAKLLRFKLLYSALLSSLLV | not soluble |
